Cellular invasion of SMMC-7721-SC2 cells through Matrigel, 36 hours data for one substance are collected here from patent publication US20100322950A1.

The assay addresses CD44 receptors on SMMC-7721-SC2 hepatocellular carcinoma cells (human) (UniProt P16070). The assay is described as follows: cell-based or functional assay.

Some results are limits rather than exact numbers.

Sequence of CD44 receptors on SMMC-7721-SC2 hepatocellular carcinoma cells (human) (P16070 21-742): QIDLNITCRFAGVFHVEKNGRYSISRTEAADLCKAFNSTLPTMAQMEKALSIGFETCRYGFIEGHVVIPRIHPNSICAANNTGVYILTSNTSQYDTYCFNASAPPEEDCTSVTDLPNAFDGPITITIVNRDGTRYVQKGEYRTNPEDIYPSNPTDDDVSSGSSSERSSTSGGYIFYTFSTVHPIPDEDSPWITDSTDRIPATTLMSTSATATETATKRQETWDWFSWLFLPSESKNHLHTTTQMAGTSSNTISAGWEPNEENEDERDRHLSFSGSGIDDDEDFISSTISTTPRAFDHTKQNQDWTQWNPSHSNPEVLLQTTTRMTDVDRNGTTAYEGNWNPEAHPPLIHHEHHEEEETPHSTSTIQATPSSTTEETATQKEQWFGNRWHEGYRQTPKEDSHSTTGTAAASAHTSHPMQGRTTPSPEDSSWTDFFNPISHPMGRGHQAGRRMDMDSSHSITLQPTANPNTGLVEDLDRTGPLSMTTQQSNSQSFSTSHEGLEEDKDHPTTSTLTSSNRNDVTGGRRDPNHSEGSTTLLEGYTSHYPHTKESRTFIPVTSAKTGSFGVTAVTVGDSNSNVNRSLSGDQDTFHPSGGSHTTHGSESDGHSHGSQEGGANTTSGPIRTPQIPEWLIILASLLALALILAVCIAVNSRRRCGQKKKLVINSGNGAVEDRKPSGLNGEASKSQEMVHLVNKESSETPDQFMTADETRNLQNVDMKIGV

Consider “OPN-5 kD expressed from the pDest-490 vector with C-terminal 1xFLAG tag (from UniProt P10451 167-210) (ligand)”, for which the cellular invasion of SMMC-7721-SC2 cells through Matrigel, 36 hours was > 2 fold.
